Test results taken from patent US20050048634.

Molecular target: oligo-nucleosomes purified from HeLa cells or chicken blood cells

B1: hDOT1L(1-416) (protein)
chain: MGEKLELRLKSPVGAEPAVYPWPLPVYDKHHDAAHEIIETIRWVCEEIPDLKLAMENYVLIDYDTKSFESMQRLCDKYNRAIDSIHQLWKGTTQPMKLNTRPSTGLLRHILQQVYNHSVTDPEKLNNYEPFSPEVYGETSFDLVAQMIDEIKMTDDDLFVDLGSGVGQVVLQVAAATNCKHHYGVEKADIPAKYAETMDREFRKWMKWYGKKHAEYTLERGDFLSEEWRERIANTSVIFVNNFAFGPEVDHQLKERFANMKEGGRIVSSKPFAPLNFRINSRNLSDIGTIMRVVELSPLKGSVSWTGKPVSYYLHTIDRTILENYFSSLKNPKLREEQEAARRRQQRESKSNAATPTKGPEGKVAGPADAPMDSGAEEEKAGAATVKKPSPSKARKKKLNKKGRKMAGRKRGRPKK
HMTase activity in the presence of increasing concentrations (1.5, 15, 150 uM) of the competitor peptide C-RS10 (SEQ ID NO:20): effectively competed with increasing concentrations of the peptide

B2: hDOT1L(1-416) Δ(376-390) (protein)
chain: MGEKLELRLKSPVGAEPAVYPWPLPVYDKHHDAAHEIIETIRWVCEEIPDLKLAMENYVLIDYDTKSFESMQRLCDKYNRAIDSIHQLWKGTTQPMKLNTRPSTGLLRHILQQVYNHSVTDPEKLNNYEPFSPEVYGETSFDLVAQMIDEIKMTDDDLFVDLGSGVGQVVLQVAAATNCKHHYGVEKADIPAKYAETMDREFRKWMKWYGKKHAEYTLERGDFLSEEWRERIANTSVIFVNNFAFGPEVDHQLKERFANMKEGGRIVSSKPFAPLNFRINSRNLSDIGTIMRVVELSPLKGSVSWTGKPVSYYLHTIDRTILENYFSSLKNPKLREEQEAARRRQQRESKSNAATPTKGPEGKVAGPADAPMDSGPSKARKKKLNKKGRKMAGRKRGRPKK
HMTase activity in the presence of increasing concentrations (1.5, 15, 150 uM) of the competitor peptide C-RS10 (SEQ ID NO:20): effectively competed with increasing concentrations of the peptide
